Assay [1] concerns the target p38b mitogen-activated protein kinase (Drosophila melanogaster) (UniProt O61443).
The target is the same in assay [2]. This is another data set of the same source.
The target is the same in assay [3]. The source holds these as a separate data set.

UniProt O61443, sequence (O61443 whole entry): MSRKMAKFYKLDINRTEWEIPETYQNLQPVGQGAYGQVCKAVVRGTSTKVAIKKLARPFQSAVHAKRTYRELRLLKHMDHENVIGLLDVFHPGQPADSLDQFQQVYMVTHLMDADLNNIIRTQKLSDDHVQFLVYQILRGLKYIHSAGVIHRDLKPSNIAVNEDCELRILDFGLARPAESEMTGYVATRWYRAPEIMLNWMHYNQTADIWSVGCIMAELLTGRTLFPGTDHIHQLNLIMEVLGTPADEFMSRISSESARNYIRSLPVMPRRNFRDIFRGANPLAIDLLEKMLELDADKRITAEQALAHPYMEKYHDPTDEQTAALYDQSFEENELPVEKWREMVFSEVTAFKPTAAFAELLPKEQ

As for DmGSTO1 (enzyme), the p38b kinase activity toward Jun with the GST at 1:1 molar ratio (ADP Quest assay), fold against the reaction without GST in assay [1] was found to be 2 fold. In assay [2], the GST conjugating activity toward CDNB after 5 min with p38b at 1:1 molar ratio, percent increase against no p38b stood at 58%.

In the case of DmGSTO2a (enzyme), in assay [2], the GST conjugating activity toward CDNB after 5 min with p38b at 1:1 molar ratio, percent increase against no p38b was determined as 26%.

Consider DmGSTO3 (enzyme), for which, in assay [1], the p38b kinase activity toward Jun with the GST at 1:1 molar ratio (ADP Quest assay), fold against the reaction without GST turned out to be 1.6 fold. Besides, the GST thiol transferase activity toward HED after 5 min with p38b at 1:1 molar ratio, percent change (a decrease by the discussion) against no p38b in assay [2] is 14%.

With DmGSTT2 (enzyme), in assay [1], the p38b kinase activity toward ATF2 with the GST at 1:1 molar ratio (ADP Quest assay), fold against the reaction without GST stood at 3.1 fold and the p38b kinase activity toward Jun with the GST at 1:1 molar ratio (ADP Quest assay), fold against the reaction without GST was 4.3 fold. In addition, the GST conjugating activity toward CDNB after 5 min with p38b at 1:1 molar ratio, percent increase against no p38b in assay [2] was 14%.

Regarding DmGSTT3b (enzyme), in assay [1], the p38b kinase activity toward ATF2 with the GST at 1:1 molar ratio (ADP Quest assay), fold against the reaction without GST came to 3.4 fold and the p38b kinase activity toward Jun with the GST at 1:1 molar ratio (ADP Quest assay), fold against the reaction without GST came to 7.4 fold. In assay [3], this substance registered a p38b kinase activity toward ATF2 with DmGSTT3b, fold against p38b with DmGSTT3a of 3.1 fold and a p38b kinase activity toward Jun with DmGSTT3b, fold against p38b with DmGSTT3a of 6.9 fold. In addition, the GST conjugating activity toward CDNB after 5 min with p38b at 1:1 molar ratio, percent decrease against no p38b in assay [2] was found to be 84%.
